Measured values published in patent publication US20260124303A1 (MINK THERAPEUTICS, published 2026).

T1: human FAP (fibroblast activation protein) (human, UniProt Q12884 26-760, limits assumed)
T1 construct: Protein immobilised on the CM5 chip or premixed with Fab in SPR; also called huFAP; hFAP
T1 sequence: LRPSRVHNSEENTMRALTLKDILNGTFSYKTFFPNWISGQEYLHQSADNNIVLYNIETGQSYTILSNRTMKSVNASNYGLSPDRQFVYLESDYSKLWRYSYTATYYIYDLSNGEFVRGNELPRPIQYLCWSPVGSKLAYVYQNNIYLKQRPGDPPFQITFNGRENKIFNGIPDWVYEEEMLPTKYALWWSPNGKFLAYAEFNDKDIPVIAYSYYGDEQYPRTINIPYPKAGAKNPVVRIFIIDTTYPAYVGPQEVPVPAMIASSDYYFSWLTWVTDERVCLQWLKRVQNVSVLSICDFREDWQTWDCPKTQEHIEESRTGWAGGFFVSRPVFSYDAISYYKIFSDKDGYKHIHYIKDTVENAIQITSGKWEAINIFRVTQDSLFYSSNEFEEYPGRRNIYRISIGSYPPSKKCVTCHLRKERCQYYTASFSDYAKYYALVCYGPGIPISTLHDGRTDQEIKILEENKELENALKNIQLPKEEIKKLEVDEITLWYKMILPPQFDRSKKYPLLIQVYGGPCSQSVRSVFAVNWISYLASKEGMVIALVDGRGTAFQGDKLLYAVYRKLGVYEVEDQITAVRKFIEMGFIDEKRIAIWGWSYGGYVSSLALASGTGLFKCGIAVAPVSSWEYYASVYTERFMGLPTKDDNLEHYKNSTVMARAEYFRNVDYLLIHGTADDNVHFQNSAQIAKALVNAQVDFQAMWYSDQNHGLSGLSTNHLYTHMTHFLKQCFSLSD

T2: mouse FAP (mouse, UniProt P97321 26-761, limits assumed)
T2 construct: Protein immobilised on the CM5 chip in SPR
T2 sequence (looked up): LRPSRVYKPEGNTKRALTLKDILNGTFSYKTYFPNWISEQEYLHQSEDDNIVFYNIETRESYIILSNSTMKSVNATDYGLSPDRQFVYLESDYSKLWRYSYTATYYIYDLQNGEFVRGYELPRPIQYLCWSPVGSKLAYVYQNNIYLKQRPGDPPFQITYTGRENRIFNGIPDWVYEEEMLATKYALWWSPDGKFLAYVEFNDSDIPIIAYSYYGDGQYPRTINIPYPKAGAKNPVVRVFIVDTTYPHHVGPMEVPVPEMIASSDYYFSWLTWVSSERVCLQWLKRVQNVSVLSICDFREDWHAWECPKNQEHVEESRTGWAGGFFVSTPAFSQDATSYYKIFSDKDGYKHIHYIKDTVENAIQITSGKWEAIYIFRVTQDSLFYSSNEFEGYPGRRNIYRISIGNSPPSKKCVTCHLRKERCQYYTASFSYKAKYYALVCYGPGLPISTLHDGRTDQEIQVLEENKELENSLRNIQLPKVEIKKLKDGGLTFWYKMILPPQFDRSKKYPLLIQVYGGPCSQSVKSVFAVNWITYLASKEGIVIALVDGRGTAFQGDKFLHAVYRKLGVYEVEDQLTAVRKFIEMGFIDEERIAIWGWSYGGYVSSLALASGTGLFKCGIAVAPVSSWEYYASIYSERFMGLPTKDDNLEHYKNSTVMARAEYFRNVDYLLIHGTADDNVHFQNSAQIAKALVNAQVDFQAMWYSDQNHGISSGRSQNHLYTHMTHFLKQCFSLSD


Columns and labels:
[1] = molecular target: T1, human FAP (fibroblast activation …); experiment: SPR (Biacore), human FAP immobilised on CM5 chip by amine coupling, Fab as analyte, 2-fold dilution series from 500 nM
Experimental: (§1) 2.5 μg/mL human FAP was immobilized to flow cells 1-4 on CM5 chip by amine coupling. […] 5 μg/mL mouse FAP was immobilized to flow cells 5-8 on CM5 chip by amine coupling. […] Regeneration was done with 2.5 mM NaOH, 1M NaCl.

[2] = molecular target: T2, mouse FAP; experiment: SPR (Biacore), mouse FAP immobilised on CM5 chip by amine coupling, Fab as analyte, 2-fold dilution series from 500 nM
Experimental: as §1

[3] = molecular target: T3, human DPP4 (human, UniProt P27487 1-766); experiment: IgG staining of HEK cells transiently expressing the construct
T3 construct: whole, on cells; Transiently expressed in HEK cells; also called hDPP4; dipeptidyl peptidase IV
Source text: The constructs were designed on the DPP4 backbone and different FAP fragments were introduced to replace the corresponding DPP4 fragment as shown in FIG. 13D. BFP was used as a marker of transfection and His-tag to confirm expression.
The constructs were transiently expressed in HEK cells and the different IgGs were used to stain the cells.

T3 sequence (P27487 whole entry): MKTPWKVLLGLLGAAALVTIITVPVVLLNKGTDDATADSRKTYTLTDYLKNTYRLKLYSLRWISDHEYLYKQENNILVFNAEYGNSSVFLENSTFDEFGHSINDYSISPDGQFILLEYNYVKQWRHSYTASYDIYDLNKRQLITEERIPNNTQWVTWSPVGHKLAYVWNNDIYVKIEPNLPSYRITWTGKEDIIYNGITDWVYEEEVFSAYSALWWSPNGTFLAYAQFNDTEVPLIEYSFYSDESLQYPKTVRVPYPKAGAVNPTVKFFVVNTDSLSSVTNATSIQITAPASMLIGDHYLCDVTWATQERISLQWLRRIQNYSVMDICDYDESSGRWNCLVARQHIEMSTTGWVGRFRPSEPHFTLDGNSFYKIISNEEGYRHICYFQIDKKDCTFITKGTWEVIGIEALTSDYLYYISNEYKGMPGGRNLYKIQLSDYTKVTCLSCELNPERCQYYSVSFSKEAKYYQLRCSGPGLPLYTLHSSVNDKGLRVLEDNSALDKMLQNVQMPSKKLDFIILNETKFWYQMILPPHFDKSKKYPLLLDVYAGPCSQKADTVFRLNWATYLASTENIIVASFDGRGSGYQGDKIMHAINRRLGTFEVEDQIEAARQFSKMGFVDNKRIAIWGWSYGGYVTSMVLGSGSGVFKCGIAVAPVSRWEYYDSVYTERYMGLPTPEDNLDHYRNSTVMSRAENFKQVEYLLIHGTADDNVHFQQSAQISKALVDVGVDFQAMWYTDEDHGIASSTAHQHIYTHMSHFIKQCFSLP

Row | Binder | Kd [1] [nM] | Kd [2] [nM] | binding result [3]
1 | A07 Fab (Fab, V domains shown) VH: QVQLVQSGAEVKKPGSSVKVSCKASGGTFSSYAISWVRQAPGQGLEWMGGIIPIFGTANYAQKFQGRVTITADESTSTAYMELSSLRSEDTAVYYCASPRDCSSTSCYAGIDAFDIWGQGTMVTVSS VL: not shown | 757 | 330 | –
2 | E07 IgG (antibody, V domains shown) VH: EVQLLESGGGLVQPGGSLRLSCAASGFTFKSYVMSWVRQAPGKGLEWVSAIVPSGGDTYYADSVKGRFTISRDNSKNTLYLQMNSLRAEDTAVYYCAKDYYGGWFDPWGQGTLVTVSS VL: not shown | – | – | no binding
